Test results: patent US20110195494A1 (Boehringer Ingelheim, published 2011)

B1: DLLBII115A05 (VHH)
VHH: EVQLVESGGGLVQPGGSLRLSCAASGFTFGSYDMSWVRRSPGKGPEWVSSINSGGGSTYYADFVKGRFTISRDNAKNTLYLQMNSLKPEDTAVYYCAADRYIRARQGDYWGAYEYDYWGQGTQVTVSS
notes: also called DLLBII115A5; 115A5; not shown: C-terminal c-myc tag and His6 tag
B2: DLLBII58A11 (VHH)
VHH: EVQLVESGGGLVQAGGSLRLSCTTSERTVSRYSMGWFRQAPGKEREAVATISWSGDSTYYADSVKGRFTISRDNTKNTLYLQIDSLKPEDTAVYYCVAKPNLKYGSYWPPRGYDYWGQGTQVTVSS
notes: tested as periplasmic extract; not shown: C-terminal c-myc tag and His6 tag
B3: DLLBII61F05 (VHH)
VHH: EVQLVESGGGLVQPGGSLRLSCTASGFTFSSYAMSWVRQAPGKGLEWVSFINKDGSDTGYADSVKGRFTISRDNAKNTMYLQMNSLKPEDTAVYFCETRTSRSPRPRGQGTQVTVSS
notes: tested as periplasmic extract; also called DLLBII61F5; not shown: C-terminal c-myc tag and His6 tag
B4: DLLBII61F07 (VHH)
VHH: EVQLVESGGGLVQAGGSLRLSCAASGRTFSRYAMGWFRQAPGKEREFVAAINWSGGSTYYADSVKGRFTISRDNAKNTVYLQMNSLKPEDTAVYDCAASNYYSVYDDRPVMDYWGQGTQVTVSS
notes: tested as periplasmic extract; also called DLLBII61F7; not shown: C-terminal c-myc tag and His6 tag
B5: DLLBII62C11 (VHH)
VHH: EVQLMESGGGLVQPGGSLRLSCVAAGFTFSNYYMSWVRQAPGKGLEWVSVISPDGSNTYYADTVKGRFTISRGNAKNTLFLQMTGLKSEDAAVYYCARGSGSWGVHGQGTQVTVSS
notes: not shown: C-terminal c-myc tag and His6 tag
B6: DLLBII80E08 (VHH)
VHH: EVQLVESGGGLVQAGGSLTLSCAASGGTFTTYAMGWFRQAPGKEREFVAAVSRFGVSWDYADSVKGRFTISRDNTANTLKLRMNSLKADDTAVYYCAAGGRSFLPFVPAYWGQGTQVTVSS
notes: tested as periplasmic extract; also called DLLBII80E8; not shown: C-terminal c-myc tag and His6 tag
B7: DLLBII47D01 (VHH)
VHH: EVQLVESGGGLVQPGGSLRLSCAASGFTFDDYAIGWFRQAPGKEREGVSCISSSGSTYYADSVKGRFTISRDNAKNTVYLQMNSLKPEDTAVYYCAIAGASSWCFPPGYWGQGTQVTVSS
notes: tested as periplasmic extract; also called DLLBII47D1; not shown: C-terminal c-myc tag and His6 tag
B8: DLLBII95F02 (VHH)
VHH: EVQLVESGGGSVQAGGSLRLSCAASGRTFSSYAMGWFRQAPGKEREFVAAINWSGGYTYYADSVRGRFTISRDNAKNTVYLQMNSLKPEDTAVYYCAAPAPGSSGYEYDYWGQGTQVTVSS
notes: tested as periplasmic extract; also called DLLBII95F2; not shown: C-terminal c-myc tag and His6 tag
B9: DLLBII96C03 (VHH)
VHH: EVQLVESGGGLVQPGGSLRLSCAASGFTFGNYDMSWVRQAPGKGPEWVSAINSGGGDTYYADSVKGRFTISRDNAKNTLYLQMNSLKPEDTAVYYCATPRGWGPTGPHEYGYWGQGTQVTVSS
notes: also called DLLBII96C3; DLLBII96CO3; not shown: C-terminal c-myc tag and His6 tag
B10: DLLBII102F08 (VHH)
VHH: EVQLVESGGGLVQTGDSLRLSCAASGSTFSNYRMGWFRQGPGKEREFVAAIGRNGQNTYYTDSVKGRFTVTRDNAKNMVYLQMNSLKPEDSAVYTCAASLRGWDTTRIDYEYWGQGTQVTVSS
notes: tested as periplasmic extract; also called DLLBII102F8; not shown: C-terminal c-myc tag and His6 tag
B11: DLLBII112A03 (VHH)
VHH: EVQLVESGGGLVQPGGSLRLSCAASGIRFSINGMGWYRQAPGKQREAVATITRGGIRDYTDSVKGRFTISRDIARNTVYLQMNNLKPEDSAVYYCNIDIYWGRGTQVTVSS
notes: tested as periplasmic extract; also called DLLBII112A3; not shown: C-terminal c-myc tag and His6 tag
B12: DLLBII102G04 (VHH)
VHH: EVQLMESGGGLVQPGGSLRLSCAASGFTFSSYAMSWVRQAPGKGLEWVSRITSGGRTTYRDSVKGRFTISRDNSKNTLYLQMNSLKPEDTALYYCAKARGDIDVYTLSDSRGQGTQVTVSS
notes: tested as periplasmic extract; also called DLLBII102G4; not shown: C-terminal c-myc tag and His6 tag

Key:
[1] = biological target: T1, full length human DLL4 on overexpressing CHO or HEK293 cells (human, UniProt Q9NR61 27-685); experiment: FMAT, hNotch1/Fc on CHO-hDLL4, periplasmic extract
T1 construct: also called CHO-hDLL4; HEK293-hDII4
T1 sequence (Q9NR61 27-685 limits assumed): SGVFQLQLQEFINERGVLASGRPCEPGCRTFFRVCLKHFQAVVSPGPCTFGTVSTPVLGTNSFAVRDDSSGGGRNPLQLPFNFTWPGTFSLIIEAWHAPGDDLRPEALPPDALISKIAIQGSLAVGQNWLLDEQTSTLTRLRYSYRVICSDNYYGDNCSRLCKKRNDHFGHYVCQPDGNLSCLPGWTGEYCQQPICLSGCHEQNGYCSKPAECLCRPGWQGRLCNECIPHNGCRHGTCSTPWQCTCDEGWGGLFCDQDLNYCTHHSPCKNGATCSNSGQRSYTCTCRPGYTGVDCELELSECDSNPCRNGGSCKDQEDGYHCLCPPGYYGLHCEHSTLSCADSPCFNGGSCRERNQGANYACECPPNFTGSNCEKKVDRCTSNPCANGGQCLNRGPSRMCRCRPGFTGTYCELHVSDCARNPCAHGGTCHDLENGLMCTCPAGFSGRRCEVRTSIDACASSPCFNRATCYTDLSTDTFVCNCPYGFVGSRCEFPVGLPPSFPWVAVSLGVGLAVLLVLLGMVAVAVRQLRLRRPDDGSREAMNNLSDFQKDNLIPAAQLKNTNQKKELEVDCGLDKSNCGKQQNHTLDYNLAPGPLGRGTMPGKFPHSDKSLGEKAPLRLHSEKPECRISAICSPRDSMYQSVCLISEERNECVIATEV
Text: (§1) All calculations are based on the FL1 total signal which comprises the average of the fluorescence per well times the number of counts per well.

[2] = biological target: T2, full length mouse DLL4 on overexpressing CHO or HEK293 cells (mouse, UniProt Q9JI71 27-686); experiment: FMAT, hNotch1/Fc on CHO-mDLL4, periplasmic extract
T2 construct: whole, on cells; also called CHO-mDLL4; mDLL4
T2 sequence (Q9JI71 27-686): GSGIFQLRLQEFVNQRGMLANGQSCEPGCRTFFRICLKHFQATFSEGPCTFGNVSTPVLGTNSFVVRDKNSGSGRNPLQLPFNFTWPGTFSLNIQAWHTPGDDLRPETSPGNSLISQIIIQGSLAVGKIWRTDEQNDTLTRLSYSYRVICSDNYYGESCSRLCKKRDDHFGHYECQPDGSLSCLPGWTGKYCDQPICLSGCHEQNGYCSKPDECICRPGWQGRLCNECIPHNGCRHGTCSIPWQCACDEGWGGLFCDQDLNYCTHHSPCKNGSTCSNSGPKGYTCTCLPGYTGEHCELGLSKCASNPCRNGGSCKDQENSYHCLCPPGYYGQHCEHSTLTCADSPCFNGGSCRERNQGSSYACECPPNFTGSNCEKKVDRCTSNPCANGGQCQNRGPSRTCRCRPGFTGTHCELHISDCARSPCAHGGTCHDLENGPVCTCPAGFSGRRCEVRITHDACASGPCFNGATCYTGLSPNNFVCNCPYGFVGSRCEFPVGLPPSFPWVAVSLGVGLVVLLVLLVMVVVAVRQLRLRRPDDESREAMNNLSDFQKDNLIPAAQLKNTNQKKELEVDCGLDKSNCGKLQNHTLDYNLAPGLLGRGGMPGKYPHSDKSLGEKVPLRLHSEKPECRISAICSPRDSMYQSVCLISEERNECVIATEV
Text: as §1

Binder | FMAT hDLL4 % inhibition [1] [%] | FMAT mDLL4 % inhibition [2] [%]
B1 | 74 | 84
B2 | 95 | 73
B3 | 74 | 76
B4 | 79 | 77
B5 | 74 | 71
B6 | 71 | 82
B7 | 87 | –
B8 | 81 | 71
B9 | 75 | 83
B10 | 85 | 75
B11 | 72 | 97
B12 | 86 | 82
